Where “and” joins values, the source holds several entries; their conditions need not be identical. Identical values can stand only once. No end group written: not given here.
Assays:
Format in all cases: physicochemical
[1] = Adsorption (surface tension lowering), modified Wilhelmy surface balance; conditions: equilibrium adsorption after three (3) minutes spreading time; peptide 0.5 mg/ml (2% of solids)
Experimental: A procedures similar to that described by Notter, et al., Petaitric Res. 16, 515-519, (1982) was employed to determined the absorption rate in the absence of diffusion resistance. The modified Wilhelmy surface balance as described above was used. However, instead of using a Langmuir trough a round Teflon dish (5.1 cm diameter) was employed. The subphase, 70 ml of 0.15 M NaCl, was allowed to equilibrate to 37° C. in the incubator and was continuously stirred with a Teflon coated magnetic stirrer. An aliquot of the peptide/lipid fragment admixture containing 5 mg of total phospholipid was dispersed in 10 ml of 0.15 M NaCl by vortexing for 10 seconds. This dispersion was then added to the saline subphase. Surface tension lowering was monitoring using a strip chart recorder connected to the electro balance output.

[2] = Dynamic surface tension versus compressed surface area, modified Wilhelmy balance-Langmuir trough; conditions: 675 ug phospholipid on trough at 445 sq. cm, peptide 0.5 mg/ml (2% of solids) in DPPC:PG:PA lipids; for Surface tension, Maximum: maximum recorded during seven complete cycles; for Surface tension, Minimum: minimum recorded during seven complete cycles
From the text: The dynamic surface tension lowering properties of the peptide/lipid admixtures were studied using a modified Wilhelmy surface Balance (Langmuir Trough). The instrument consists of an all Teflon trough and movable Teflon ribbon (dam) barrier system which completely contains and defines a variable surface area. Surface area was varied through the use of a constant rate reversible 3-phase motor to drive the Teflon barrier. A Cahn 2000 electrobalance (Cahn Instruments, Cerittos, Calif.) with a sandblasted 1 cm platinum plate and stainless steel hangdown wire was employed to determine the surface tension at the liquid-air interface. The entire apparatus was situated in a thermostated incubator set at 45° C. Surface area-surface tension measurements were made by adding 950 ml of 0.15 M NaCl to the trough. Subphase temperature was controlled during the measurements at 36°-38° C.
For each experiment 27 ul of peptide/lipid admixture was applied in a random array of 13 (.perspectiveto.2 ul) droplets to the surface of the temperature controlled subphase and allowed to spread spontaneously for 3 minutes. (The 27 ul application corresponds to 675 ug of phospholipid). The trough surface area was then cycled from a maximum (445 sq. cm) to a minimum (178 sq. cm) surface area and black to maximum at a cycling rate of 3 cycles/min (compression ratio 2.5:1). The dynamic surface tension vs surface area was recorded for 7 complete compression-expansion cycles for each application.

[3] = Pulsating bubble surfactometer (PBS), surface tension at air-aqueous interface; conditions: after 5 minutes pulsation (100 cycles), 20 cycles/minute, 37 C, 1 mg/ml phospholipid in 0.15 M NaCl; peptide 2% of phospholipids
Experimental: The Pulsating Bubble Surfactometer (PBS). The PBS equipment (Electrtonetics, Buffalo, N.Y.) used was essentially equivalent to that described in detail by G. Enhorning, J. Appld, Physiol. 43, 198-203, (1977). Recordings were made of the pressure gradient across the wall of a small air bubble, communicating with ambient air by means of a narrow chimney stack, but otherwise entirely surrounded by a 40 ul volume of the peptide/lipid admixture. The admixture concentration employed for these studies was 1 mg/ml total phospholipid (0.02 mg/ml total peptide) and the diluent was 0.15 M naCl. Immediately prior to loading the sample chamber, the diluted samples were sonicated for 15 seconds to remove any gas nuclei.
The pressure drop across the air-water interface was measured during pulsation by a pressure transducer, and the corresponding surface tension determined through the application of Young's law and the Laplace equation. Measurements were all made at 37° C. and the bubble pulsed at 20 cycles/minute to render respectively a maximum (1.1 mm) and a minimum (0.8 mm) bubble diameter. (This compression/expansion corresponds to a 50% change in the surface area of the air-water interface).

[4] = Relative surface activity by dilution studies on modified Wilhelmy balance-Langmuir trough; conditions: criterion: minimum dynamic surface tension less than 5 dynes/cm for each of seven consecutive cycles; phospholipid 25 mg/ml, 675 ug applied
Experimental: For the purpose of this comparison "surface activity" is defined as follows: For any given peptide concentration, the admixture is required to result in a minimum dynamic surface tension of less than 5 dynes/cm for each of seven consecutive expansion/compression cycles.
The admixtures were diluted with the synthetic lipid mixture as described in Example 4, so as to maintain the lipid concentration in all cases at 25 mg/ml. For these studies a standard volume of 27 ul, corresponding to a total phospholipid mass of 675 ug, was applied to the Langmuir Trough with maximum dimensions of 445 sq. cm.

SP-B(1-40): synthesized SP-B peptide fragment, position 1-40, 40 amino acids
Adsorption [1]: 42.5 dynes/cm
Surface tension, Maximum [2]: 48.5 dynes/cm
Surface tension, Minimum [2]: < 1 dynes/cm
Minimum Surface Tension [3]: 7.1 ± 0.41 dyne/cm
Lowest Peptide (Protein) Concentration At Which Surface Active Criteria Are Met [4]: 15.0 ug/ml and 3.3 uM

SP-B(1-60): synthesized SP-B peptide fragment, position 1-60, 60 amino acids (FPIPLPYCWLCRALIKRIQAMIPKGALAVAVAQVCRVVPLVAGGICQCLAERYSVILLDT; ends and bridges not checked; cysteine pairing not given here; UniProt P07988 201-260, looked up, fragment)
Adsorption [1]: 42.0 dynes/cm
Surface tension, Maximum [2]: 47.5 dynes/cm
Surface tension, Minimum [2]: < 1 dynes/cm
Minimum Surface Tension [3]: 7.2 ± 0.26 dyne/cm
Lowest Peptide (Protein) Concentration At Which Surface Active Criteria Are Met [4]: 125.0 ug/ml and 18.9 uM

SP-B(12-60): synthesized SP-B peptide fragment, position 12-60, 49 amino acids (RALIKRIQAMIPKGALAVAVAQVCRVVPLVAGGICQCLAERYSVILLDT; ends and bridges not checked; cysteine pairing not given here; UniProt P07988 212-260, looked up, fragment)
Adsorption [1]: 41.0 dynes/cm
Surface tension, Maximum [2]: 49.0 dynes/cm
Surface tension, Minimum [2]: < 1 dynes/cm
Minimum Surface Tension [3]: 10.3 ± 0.67 dyne/cm
Lowest Peptide (Protein) Concentration At Which Surface Active Criteria Are Met [4]: 30.0 ug/ml and 11.4 uM

SP-B(27-78): synthesized SP-B peptide fragment, position 27-78, 52 amino acids (LAVAVAQVCRVVPLVAGGICQCLAERYSVILLDTLLGRMLPQLVCRLVLRCS; ends and bridges not checked; cysteine pairing not given here; UniProt P07988 227-278, looked up, fragment)
Adsorption [1]: 40.0 dynes/cm
Surface tension, Maximum [2]: 49.5 dynes/cm
Surface tension, Minimum [2]: < 1 dynes/cm
Minimum Surface Tension [3]: 4.7 ± 0.26 dyne/cm
Lowest Peptide (Protein) Concentration At Which Surface Active Criteria Are Met [4]: 30.0 ug/ml and 5.3 uM

SP-B(30-60): synthesized SP-B peptide fragment, position 30-60 (AVAQVCRVVPLVAGGICQCLAERYSVILLDT; ends and bridges not checked; cysteine pairing not given here; UniProt P07988 230-260, looked up, fragment)
Adsorption [1]: 41.0 dynes/cm
Surface tension, Maximum [2]: 52.0 dynes/cm
Surface tension, Minimum [2]: < 1 dynes/cm
Minimum Surface Tension [3]: 16.9 ± 0.95 dyne/cm
Lowest Peptide (Protein) Concentration At Which Surface Active Criteria Are Met [4]: 250.0 ug/ml and 76.7 uM

B1: SP-B(1-78): replica of the entire 78 amino acid residue sequence of the native human SP-B protein (peptide, UniProt P07988 201-279, looked up)
Pulmonary …: FPIPLPYCWLCRALIKRIQAMIPKGALAVAVAQVCRVVPLVAGGICQCLAERYSVILLDTLLGRMLPQLVCRLVLRCSM
modifications: Pulmonary surfactant-associated protein B synthetic
Adsorption [1]: 37.5 dynes/cm
Surface tension, Maximum [2]: 44.0 dynes/cm
Surface tension, Minimum [2]: < 1 dynes/cm
Minimum Surface Tension [3]: 4.0 ± 0.72 dyne/cm
Lowest Peptide (Protein) Concentration At Which Surface Active Criteria Are Met [4]: 15.0 ug/ml and 1.7 uM

— US5238920A, “Pulmonary surfactant protein fragments” (Abbott Laboratories, priority 1989, dated 1993)
